Data published in patent publication US20150299322A1 (Dana-Farber, published 2015).

Key:
[1] = molecular target: T1, recombinant mRGMb-HIS (R&D) (mouse, UniProt Q7TQ33 49-415, limits assumed); experiment: ELISA, coated BMP-2/4, mRGMb-HIS and PD-L2-Ig at 10 ug/ml, detection of the hIgG part
T1 construct: Bought from R&D; not shown: HIS tag
T1 sequence (looked up): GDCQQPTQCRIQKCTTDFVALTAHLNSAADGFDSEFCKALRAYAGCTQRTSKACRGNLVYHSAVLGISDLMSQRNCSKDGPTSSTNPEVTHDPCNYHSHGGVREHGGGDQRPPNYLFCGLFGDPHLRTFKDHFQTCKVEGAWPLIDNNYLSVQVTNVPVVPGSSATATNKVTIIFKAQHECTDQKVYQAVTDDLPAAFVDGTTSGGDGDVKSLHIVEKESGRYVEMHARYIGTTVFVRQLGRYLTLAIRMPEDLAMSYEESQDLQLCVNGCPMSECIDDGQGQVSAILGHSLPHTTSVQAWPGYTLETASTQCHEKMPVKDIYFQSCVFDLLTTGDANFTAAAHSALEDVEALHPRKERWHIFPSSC
Method: To determine if RGMb binds PD-L2 and BMP-2/4 simultaneously, 96-well ELISA plates were coated with BMP-2/4 as above. mPD-L2-hIgG1/IgA, mPD-L2-hIgG (R&D), mPD-L1-hIgG (R&D) or control-Ig fusion proteins at 10 μg/ml were preincubated with 10 μg/ml mRGMb-HIS (R&D) or buffer alone for 15 min. at room temperature (RT), then added to the plates and incubated for 1h at 37° C. Alternatively, 10 μg/ml mRGMb-HIS (R&D) or buffer alone was added first to the plates and incubated for 1h at 37° C. After wash, mPD-L2-Ig or control-Ig fusion proteins were added and incubated for 1h at 37° C. Fab₂ goat anti-hIgG-HRP (Jackson ImmunoResearch Laboratories) at 1:10000 was used for detection.
To test if RGMb can bind both PD-L2 and BMP at the same time, an ELISA was performed to analyze the binding capacity of PD-L2-Ig fusion protein to immobilized BMP-2/4 in the presence or absence of RGMb. PD-L2 could not directly bind to BMP-2/4, but in the presence of RGMb could form a complex with BMP when RGMb and PD-L2-Ig were added simultaneously (FIG. 4A-4B) or sequentially to BMP-2/4.

[2] = molecular target: T2, recombinant hRGMb-HIS (R&D) (human, UniProt Q6NW40 46-413); experiment: ELISA, coated hRGMb-HIS, PD-L2-Ig in solution
T2 construct: Bought from R&D; not shown: HIS tag
T2 sequence: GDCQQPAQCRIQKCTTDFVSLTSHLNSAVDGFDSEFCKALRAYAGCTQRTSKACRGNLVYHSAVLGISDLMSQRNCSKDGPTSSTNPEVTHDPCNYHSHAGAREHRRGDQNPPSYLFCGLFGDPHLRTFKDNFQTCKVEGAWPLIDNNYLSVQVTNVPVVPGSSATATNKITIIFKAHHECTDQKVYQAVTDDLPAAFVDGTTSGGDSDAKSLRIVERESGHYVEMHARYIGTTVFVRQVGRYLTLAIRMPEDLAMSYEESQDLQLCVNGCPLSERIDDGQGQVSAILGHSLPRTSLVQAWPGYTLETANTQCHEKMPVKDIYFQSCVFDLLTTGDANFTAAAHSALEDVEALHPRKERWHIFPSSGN
Method: (§1) To examine RGMa/RGMb/RGMc and PD-L2 interaction, 96-well ELISA plates were coated with 2 or 5 μg/ml of recombinant mRGMa-HIS, mRGMb-HIS, mRGMc-HIS, or hRGMb-HIS (R&D). Then, serial dilutions of mPD-L2-hIgG1/IgA, mPD-L2-mIgG2a/IgA, hPD-L2-mIgG2a or control-Ig fusion proteins were added and incubated for 1h at 37° C. Fab₂ goat anti-hIgG-HRP (Jackson ImmunoResearch Laboratories) or rat anti-mIgG2a-HRP (BD Biosciences) at 1:1000 or 1:10000 were used for detection.

[3] = molecular target: T3, mouse RGMb (mRGMb) expressed on transfected cells (mouse, UniProt Q7TQ33 49-415); experiment: flow cytometry on mRGMb transiently transfected COS cells
T3 construct: whole, on cells; Also used for mRGMb in cell lysates (Western blot); also called DRAGON; 300-mRGMb cells
T3 sequence (looked up): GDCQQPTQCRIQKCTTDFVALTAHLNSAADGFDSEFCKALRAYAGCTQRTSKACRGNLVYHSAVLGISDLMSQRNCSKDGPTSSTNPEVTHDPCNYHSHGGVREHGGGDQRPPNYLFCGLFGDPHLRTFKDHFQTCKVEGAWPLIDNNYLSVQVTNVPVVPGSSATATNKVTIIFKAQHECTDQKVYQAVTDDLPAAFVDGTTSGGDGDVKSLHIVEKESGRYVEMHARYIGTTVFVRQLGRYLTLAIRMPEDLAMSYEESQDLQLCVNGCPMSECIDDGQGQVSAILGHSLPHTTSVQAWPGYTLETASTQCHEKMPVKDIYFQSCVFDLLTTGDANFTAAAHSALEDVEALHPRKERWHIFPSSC
Method: A panel of murine activated lymphocyte cDNA expression libraries were transiently transfected into COS cells using DEAE-Dextran or Lipofectamine as facilitator (Freeman et al. (1989) J. Immunol. 143:2714-2722). After 44 hours, COS cells were harvested and panned on mPD-L2-mIgG2a/IgA coated petri plates. Episomal DNA was recovered and electroporated into E. coli DH10B/P3. Spheroplast fusion was used to reintroduce the plasmids into COS cells for subsequent rounds of expression and panning. Before the second and third rounds, COS cells expressing PD-1 were removed by incubating with PD-1 mAb followed by depletion with goat anti-rat IgG magnetic beads. After the third round of panning, individual plasmids were transfected into COS cells and binding of PD-L2-Ig to RGMb was verified by flow cytometry on mRGMb transiently transfected COS cells. At least four independent mRGMb cDNA clones were isolated.

[4] = molecular target: T4, recombinant mRGMa-HIS (R&D) (mouse, UniProt Q6PCX7 48-427, limits assumed); experiment: ELISA, coated mRGMa-HIS
T4 construct: Bought from R&D; not shown: HIS tag
T4 sequence (looked up): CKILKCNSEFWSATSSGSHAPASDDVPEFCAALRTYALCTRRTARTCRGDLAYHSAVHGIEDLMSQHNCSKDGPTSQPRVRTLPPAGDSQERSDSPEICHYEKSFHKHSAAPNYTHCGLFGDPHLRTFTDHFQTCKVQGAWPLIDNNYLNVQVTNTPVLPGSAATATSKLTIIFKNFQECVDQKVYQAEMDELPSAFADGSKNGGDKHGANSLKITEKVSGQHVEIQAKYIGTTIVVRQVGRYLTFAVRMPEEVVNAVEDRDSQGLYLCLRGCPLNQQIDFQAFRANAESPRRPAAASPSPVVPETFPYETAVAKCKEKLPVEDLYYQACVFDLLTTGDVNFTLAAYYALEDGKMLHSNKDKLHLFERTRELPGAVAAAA
Method: as §1

[5] = molecular target: T5, recombinant mRGMc-HIS (R&D) (mouse, UniProt Q7TQ32 33-393, limits assumed); experiment: ELISA, coated mRGMc-HIS
T5 construct: Bought from R&D; also called hemojuvelin; not shown: HIS tag
T5 sequence (looked up): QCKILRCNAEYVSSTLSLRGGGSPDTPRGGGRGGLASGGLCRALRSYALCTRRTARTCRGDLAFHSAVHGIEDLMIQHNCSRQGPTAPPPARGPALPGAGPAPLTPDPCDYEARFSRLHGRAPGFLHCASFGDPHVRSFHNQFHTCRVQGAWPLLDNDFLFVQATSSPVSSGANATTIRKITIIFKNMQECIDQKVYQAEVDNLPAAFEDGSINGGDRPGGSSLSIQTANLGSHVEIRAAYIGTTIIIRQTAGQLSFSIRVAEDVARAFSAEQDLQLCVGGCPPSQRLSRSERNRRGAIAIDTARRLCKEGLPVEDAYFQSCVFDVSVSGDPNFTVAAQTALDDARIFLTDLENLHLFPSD
Method: as §1

binding result [1]: binds
binding result [2]: binds
binding result [3]: binds
binding result [4]: no binding
binding result [5]: no binding
B1: mPD-L2-Ig fusion protein (construct not told at the result) (Fc fusion, mouse, UniProt Q9WUL5 20-221, looked up)
chain: LFTVTAPKEVYTVDVGSSVSLECDFDRRECTELEGIRASLQKVENDTSLQSERATLLEEQLPLGKALFHIPSVQVRDSGQYRCLVICGAAWDYKYLTVKVKASYMRIDTRILEVPGTGEVQLTCQARGYPLAEVSWQNVSVPANTSHIRTPEGLYQVTSVLRLKPQPSRNFSCMFWNAHMKELTSAIIDPLSRMEPKVPRTW
notes: extracellular domain; not shown: Ig part: the methods name mPD-L2-hIgG1/IgA, mPD-L2-mIgG2a/IgA and mPD-L2-hIgG (R&D)
